Key:
[1] = molecular target: monomeric Cdc2, P06493
[2] = molecular target: Cdk2/cyclin A complex, P24941
[3] = molecular target: kinase-deficient Cdc2 mutant (K-) complexed with cyclin B1, P06493
[4] = molecular target: wild-type Cdc2/cyclin B1 complex, P06493
[5] = molecular target: Cdc2-A14/cyclin B1 complex, P06493
[6] = molecular target: Cdc2-AF/CyclinB1 complex, P06493
[7] = molecular target: Cdc2-F15/CyclinB1 complex, P06493
[8] = molecular target: Cdk2/cyclin E complex, P24941
[9] = molecular target: Cdc2/cyclin A complex, P06493
[10] = molecular target: Cdk4/cyclin D1 complex, P11802
Cdk4/cyclin D1 complex, P11802, sequence (P11802 whole entry, looked up, one chain of several): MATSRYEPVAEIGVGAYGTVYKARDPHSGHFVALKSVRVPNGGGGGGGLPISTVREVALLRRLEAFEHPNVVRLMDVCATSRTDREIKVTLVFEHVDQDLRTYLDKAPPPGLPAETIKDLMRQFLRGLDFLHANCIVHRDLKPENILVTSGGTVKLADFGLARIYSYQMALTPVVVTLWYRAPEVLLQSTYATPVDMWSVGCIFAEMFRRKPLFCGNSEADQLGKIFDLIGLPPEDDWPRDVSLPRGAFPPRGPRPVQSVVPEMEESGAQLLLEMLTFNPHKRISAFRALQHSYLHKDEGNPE

wild-type Cdc2/cyclin B1 complex, P06493, sequence (P06493 whole entry, looked up, one chain of several): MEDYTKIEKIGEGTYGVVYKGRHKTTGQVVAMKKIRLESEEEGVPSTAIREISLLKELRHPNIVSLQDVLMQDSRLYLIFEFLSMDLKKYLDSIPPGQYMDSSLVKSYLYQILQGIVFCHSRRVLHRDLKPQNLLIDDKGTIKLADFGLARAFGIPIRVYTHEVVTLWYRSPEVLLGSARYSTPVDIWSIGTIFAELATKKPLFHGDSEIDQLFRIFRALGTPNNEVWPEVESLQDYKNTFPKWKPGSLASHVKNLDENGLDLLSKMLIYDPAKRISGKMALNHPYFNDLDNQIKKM
kinase-deficient Cdc2 mutant (K-) complexed with cyclin B1, P06493, sequence (P06493 whole entry, looked up, change not shown, one chain of several): as the sequence (P06493 whole entry, looked up, one chain of several) above
monomeric Cdc2, P06493, sequence (P06493 whole entry, looked up): as the sequence (P06493 whole entry, looked up, one chain of several) above
Cdc2-F15/CyclinB1 complex, P06493, sequence (P06493 whole entry, looked up, one chain of several): as above
Cdc2/cyclin A complex, P06493, sequence (P06493 whole entry, looked up, one chain of several): as above
Cdc2-AF/CyclinB1 complex, P06493, sequence (P06493 whole entry, looked up, one chain of several): as above
Cdc2-A14/cyclin B1 complex, P06493, sequence (P06493 whole entry, looked up, one chain of several): as above

B1: Cell Growth Regulatory Protein, truncated hybrid protein (residues 1-9 deleted) with N-terminal Glu-Glu tag, expressed in Sf9 cells (protein)
chain: MEYMPMEGTRPEMPMPTEGTPPPLSGTPIPVPAYFRHAEPGFSLKRPRGLSRSLPPPPPAKGSIPISRLFPPRTPGWHQLQPRRVSFRGEASETLQSPGYDPSRPESFFQQSFQRLSRLGHGSYGEVFKVRSKEDGRLYAVKRSMSPFRGPKDRARKLAEVGSHEKVGQHPCCVRLEQAWEEGGILYLQTELCGPSLQQHCEAWGASLPEAQVWGYLRDTLLALAHLHSQGLVHLDVKPANIFLGPRGRCKLGDFGLLVELGTAGAGEVQEGDPRYMAPELLQGSYGTAADVFSLGLTILEVACNMELPHGGEGWQQLRQGYLPPEFTAGLSSELRSVLVMMLEPDPKLRATAEALLALPVLRQPRAWGVLWCMAAEALSRGWALWQALLALLCWLWHGLAHPASWLQPLGPPATPPDSPPCSLLLDSSFSSNWDDDSLGPSLSPEAVLARTVGSTSTPRSRCTPRDALDLSDINSEPPRGSFPSFEPRNLLSMFEDTLDPT
32P-labeling in a kinase reaction with monomeric Cdc2 as substrate [1]: Cell Growth Regulatory Protein did not phosphorylate monomeric Cdc2 | 32P-labeling in a kinase reaction with purified proteins [2]: Cell Growth Regulatory Protein failed to phosphorylate Cdk2 that was complexed with either cyclin A or cyclin E | histone H1 kinase activity in mixed Sf9 lysates, wild-type Cdk2 against Cdk2-AF [2]: an equivalent amount of histone H1 kinase activity was present in wild-type Cdk2 and Cdk2-AF lysates that had been mixed with either cyclin A or cyclin E lysates in the presence of Cell Growth Regulatory Protein | 32P-labeling in a kinase reaction with affinity purified proteins, SDS-PAGE [3]: both purified Cell Growth Regulatory Protein and Wee1 kinases were capable of phosphorylating wild-type Cdc2 as well as a kinase-deficient Cdc2 mutant (K-), each of which was complexed with cyclin B1 | phosphoamino acid analysis of 32P-labeled Cdc2 [3]: phosphorylation occurred only on threonine residues | 32P-labeling in a kinase reaction with affinity purified proteins, SDS-PAGE [4]: both purified Cell Growth Regulatory Protein and Wee1 kinases were capable of phosphorylating wild-type Cdc2 as well as a kinase-deficient Cdc2 mutant (K-), each of which was complexed with cyclin B1 | 32P-labeling in a kinase reaction with the Cdc2/cyclin B1 complex reconstituted from monomers [4]: reconstitution of the Cdc2/cyclin B1 complex, by pre-incubating monomeric Cdc2 with monomeric cyclin B1, enabled Cell Growth Regulatory Protein to phosphorylate Cdc2 | histone H1 kinase activity (Cdc2 kinase activation) in mixed Sf9 lysates [4]: a dramatic reduction in Cdc2 kinase activation was observed, similar to that observed for Wee1 | immunoblotting of mixed lysates with phosphotyrosine antibodies [4]: showed that Cdc2 was phosphoryalted on Tyrosine 15 to some extent | histone H1 kinase activity (Cdc2 kinase activation) in mixed Sf9 lysates [5]: such lysates also inhibited both Cdc2-A14 and Cdc2-F15 activation; Cdc2-A14 lysates consistently retain some histone H1 kinase activity | 32P-labeling in a kinase reaction with affinity purified proteins, SDS-PAGE [6]: the Cdc2-AF mutant was not phosphorylated by Cell Growth Regulatory Protein or Wee1 | histone H1 kinase activity (Cdc2 kinase activation) in mixed Sf9 lysates [7]: such lysates also inhibited both Cdc2-A14 and Cdc2-F15 activation | 32P-labeling in a kinase reaction with purified proteins [8]: Cell Growth Regulatory Protein failed to phosphorylate Cdk2 that was complexed with either cyclin A or cyclin E | histone H1 kinase activity in mixed Sf9 lysates, wild-type Cdk2 against Cdk2-AF [8]: an equivalent amount of histone H1 kinase activity was present in wild-type Cdk2 and Cdk2-AF lysates that had been mixed with either cyclin A or cyclin E lysates in the presence of Cell Growth Regulatory Protein | histone H1 kinase activity in mixed Sf9 lysates [9]: greatly reduced histone H1 kinase activity compared to a mock-treated or Cdc2-AF control lysate | 32P-labeling in a kinase reaction with purified proteins [10]: neither Cell Growth Regulatory Protein nor Wee1 phosphorylated the Cdk4 subunit
